Tested on: Bacillus subtilis
Experiment: cleaved RNA product abundance (RNA/gDNA barcode ratio) relative to median wild-type variant (ratio to wild type); higher = more accumulation of the downstream cleavage product
Settings: experiment (reporter, strain, medium): exp 2b: truncated aprE reporter, strain BJT200; cleavage site: cggR-gapA (positions -7 to +36 mutated)
Summary of the method: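 In LB at 37°C, B. subtilis cultures went from OD600 0.0003 to 0.3. Their chromosomes held barcoded reporter mRNAs, truncated aprE or tetM, with RNase Y cleavage-site windows mutagenized via oligos at a 9% error rate. Cleaved RNA, chosen by gel, was reverse transcribed and barcode-sequenced alongside genomic DNA barcodes with UMI collapsing, giving a per-construct RNA:gDNA ratio scaled to the median construct with the unmutated site. This scaled ratio is termed cleaved product abundance.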

Sequence	cleaved RNA product abundance
ACAGACGAAGGAGCCGCAAAGAAGTTATTAAGGGATGAATGATCCCTCAAAATAAATATCTCTCACTTATTTAAA	0.14
ACAGACGAAGGAGCCGCAAAGATGTTATTAAGGGATGCATAATCCCTCAATATAAATATCTCTCACTTATTTAAA	0.859
ACAGACGAAGGAGCCGCAAAGAAGTTATTAAGGGATAAATAATCCCTCAATATAAATCTCTCTCACTTATTTAAA	0.559
ACAGACGAAGGAGCCGCAAAGAAGTTATTAAGGCATGAATAATCACTCAATATAAATATCTCTCACTTATTTAAA	0.118
ACAGACGAAGGAGCCGCAAAAAAGTTATTAAGGGACGAATAATCCCTCAATATAAATATCTCTCACTTATTTAAA	0.676
ACAGACGAAGGAGCCGCAAACAAGTTATTAAGGGATGAATAATCCCTCAAGATAAATATCTCTCACTTATTTAAA	0.17
ACAGACGAAGGAGCCGCAAAGAAGTAATTAAGGGATGAATAAACCCTCAATATAAATATCTCTCACTTATTTAAA	0.166
ACAGACGAAGGAGCCGCAAAGAAGTTATTAAGGCATGAATAATCCCTCAAGATAAATATCTCTCACTTATTTAAA	0.0843
ACAGACGAAGGAGCCGCAAAGAAGTTATAAAAGGATAAATAATCCCTCAATATAAATATCTCTCACTTATTTAAA	0.141
ACAGACGAAGGAGCCGCAAAGAAGTTATTAAGGTATGAATACTCCCTCAATATAAATATCTCTCACTTATTTAAA	0.0931
ACAGACGAAGGAGCCGCAAAGAAGTTATTAAGGGATGAATAATCCCTCAATATAAGTATCTCTCACTTATTTAAA	0.397
ACAGACGAAGGAGCCGCAAAGAAGTTATTAATGGATGTATAATCCCTCAATATAAATATCTCTCACTTATTTAAA	0.0434
ACAGACGAAGGAGCCGCAAAGAAGTTATTAAGGTATGAATAATCCCTCAATAAAAATATCTCTCACTTATTTAAA	0.119

Same assay, conditions: experiment (reporter, strain, medium): exp 4a: truncated aprE reporter, strain BJT201 with 2% xylose (RNase J1 expressed); cleavage site: cggR-gapA (positions -7 to +36 mutated)

Sequence	cleaved RNA product abundance
ACAGACGAAGGAGCCGCAAAGAAGTTATTAAGCGATGAATAATCTCTCAATATAAATATCTCTCACTTATTTAAA	0.0997
ACAGACGAAGGAGCCGCAAAGAAGTTATTAAGGGATGAATGATCCCTCAAAATAAATATCTCTCACTTATTTAAA	0.149
ACAGACGAAGGAGCCGCAAAGAAGTTATTAAGGTATGAATAATCCCTCAATATAGATATCTCTCACTTATTTAAA	0.08
ACAGACGAAGGAGCCGCAAAGAAGTTATTAAGGGATGAATAATCCCTCAATATAAATACATCTCACTTATTTAAA	0.712
ACAGACGAAGGAGCCGCAAAGAAGTAATTAAGGGATGAATAATCCCTCAATATAAATTTCTCTCACTTATTTAAA	0.122
ACAGACGAAGGAGCCGCAAAGAAGTTATTTAGGGATGAATAATCCCTCAATATAAACATCTCTCACTTATTTAAA	0.701
ACAGACGAAGGAGCCGCAAAGAAGTTAGTAAGGGAAGAATAATCCCTCAATATAAATATCTCTCACTTATTTAAA	0.302
ACAGACGAAGGAGCCGCAAAGAAGTTATTAAGGAATGAATAATCCCACAATATAAATATCTCTCACTTATTTAAA	0.0935
ACAGACGAAGGAGCCGCAAAAAAGTTATTAAGGGATGAATAATCCCTCAATATATATATCTCTCACTTATTTAAA	1.08
ACAGACGAAGGAGCCGCAAAGAAGTTATTAAGGGAAGAATAATCCCACAATATAAAAATCTCTCACTTATTTAAA	0.118
ACAGACGAAGGAGCCGCATAGAAGTTATTAAGGGATGAATAATGCCTCAATATAAATATCTCTCACTTATTTAAA	0.141
ACAGACGAAGGAGCCGCAAAGATGTTATTAAGGGATGCATAATCCCTCAATATAAATATCTCTCACTTATTTAAA	1.1
ACAGACGAAGGAGCCGCAAAGAAGTTATTAAGGGATGAATCATCCCTTAATATAAATATCTCTCACTTATTTAAA	0.46
ACAGACGAAGGAGCCGCAAAGAAGTTATTAAGTGATGAATAATCCCTCAATATAAATACCTCTCACTTATTTAAA	0.105
ACAGACGAAGGAGCCGCAAAGAAGTAATTAAGGGATGAATAAGCCCTCAATATAAATATCTCTCACTTATTTAAA	0.149
ACAGACGAAGGAGCCGCAAAGAAGTTAATAAGGGATGAATAATCGCTCAATATAAATATCTCTCACTTATTTAAA	0.0788
ACAGACGAAGGAGCCGCAAAGAAGTTATTAAGGGATGATGAATCCCTCAATATAAATATCTCTCACTTATTTAAA	0.766
ACAGACGAAGGAGCCGCAAAGAAGTTATTAAGGGATAAATAATCCCTCAATATAAATCTCTCTCACTTATTTAAA	0.65
ACAGACGAAGGAGCCGCAAAGAAGTTATTAAGGCATGAATAATCACTCAATATAAATATCTCTCACTTATTTAAA	0.0873
ACAGACGAAGGAGCCGCAAAAAAGTTATTAAGGGACGAATAATCCCTCAATATAAATATCTCTCACTTATTTAAA	0.54

Sequence	cleaved RNA product abundance
ACAGACGAAGGAGCCGCAAAGAAGTTATTAAGGGATGGATAATCCCTCGATATAAATATCTCTCACTTATTTAAA	0.235
ACAGACGAAGGAGCCGCAAAGAAGTTATTAAGGAATGAATAATGCCTCAATATAAATATCTCTCACTTATTTAAA	0.0706
ACAGACGAAGGAGCCGCAAAGAAGTTATTAATGGATGAATAATCCCTCTATATAAATATCTCTCACTTATTTAAA	0.143
ACAGACGAAGGAGCCGCAAAGAAGTAATTAAGGGATGAATAAACCCTCAATATAAATATCTCTCACTTATTTAAA	0.198
ACAGACGAAGGAGCCGCAAAGAAGTTATTAAGGGTTGAATAATCCCTCCATATAAATATCTCTCACTTATTTAAA	0.0987
ACAGACGAAGGAGCCGCAAAGAAGTTATTAAGGCATGAATAATCCCTCAAGATAAATATCTCTCACTTATTTAAA	0.142
ACAGACGAAGGAGCCGCAAAGAAGTTATTAAGGCATGAATAAACCCTCAATATAAATATCTCTCACTTATTTAAA	0.136
ACAGACGAAGGAGCCGCAAAGAAGTTCTTAAAGGATGAATAATCCCTCAATATAAATATCTCTCACTTATTTAAA	0.112
ACAGACGAAGGAGCCGCAAAGAAATTATTAAAAGATGAATAATCCCTCAATATAAATATCTCTCACTTATTTAAA	0.083
ACAGACGAAGGAGCCGCAAAGAAGTTATTAAGGGATGATTAATCCCTCAATATCAATATCTCTCACTTATTTAAA	0.0525
ACAGACGAAGGAGCCGCAAAGAAGTTATTCAGGGTTGAATAATCCCTCAATATAAATATCTCTCACTTATTTAAA	0.412
ACAGACGAAGGAGCCGCAGAGAAGTTATTAAGGGATGAATAATCCCTCAGTATAAATATCTCTCACTTATTTAAA	0.337
ACAGACGAAGGAGCCGCAAAAAAGTTATCAAGGGATGAATAATCCCTCAATATAAATATCTCTCACTTATTTAAA	0.507
ACAGACGAAGGAGCCGCAAAGAAGTTAGTAAGGGATGAATAATCCGTCAATATAAATATCTCTCACTTATTTAAA	0.218
ACAGACGAAGGAGCCGCAAAGAAGTTATTAAGGTATGAATACTCCCTCAATATAAATATCTCTCACTTATTTAAA	0.135
ACAGACGAAGGAGCCGCAAAGAAGTTATTAAGGGATGAATAATCCCTCAATATAAGTATCTCTCACTTATTTAAA	0.42
ACAGACGAAGGAGCCGCAAAGAAGTTATTAAGGGATGAATAATCCGTCAAAATAAATATCTCTCACTTATTTAAA	0.262
ACAGACGAAGGAGCCGCAAAGAAGTTATTAATGGATGTATAATCCCTCAATATAAATATCTCTCACTTATTTAAA	0.211
ACAGACGAAGGAGCCGCAAAGACGTTTTTAAGGGATGAATAATCCCTCAATATAAATATCTCTCACTTATTTAAA	0.44
ACAGACGAAGGAGCCGCAAAGAAGTTATTAAGGTATGAATAATCCCTCAATAAAAATATCTCTCACTTATTTAAA	0.0613

Same assay, conditions: experiment (reporter, strain, medium): exp 6: tetM reporter, strain 168; cleavage site: cggR-gapA (positions -7 to +36 mutated)

Sequence	cleaved RNA product abundance
ACAGACGAAGGAGCCGCAAAGAAGTTATTAAGGGATGAATAATCCCTCAATATAAGTATCTCTCACTTATTTAAA	0.462

Same assay, conditions: experiment (reporter, strain, medium): exp 8a: truncated aprE reporter, strain BJT201 with 2% xylose (RNase J1 expressed); cleavage site: glnRA (positions -5 to +31 mutated)

Sequence	cleaved RNA product abundance
CGACATGTCCCGCTTCTTTCATTATTCCGTTAACAACTGTTTTGCTATATTCATTTACCTTTTAAGAGGAGGAAT	0.155
CGACATGTCCCGCTTCTTTCATTAATCCGTTAGCAAGTGTTATGCTATATACATTTACCTTTTAAGAGGAGGAAT	0.19
CGACATGTCCCGCTTCTTTCATTAATACATTAGCAACTGTTTTGCTATATACATTTACCTTTTAAGAGGAGGAAT	0.748
CGACATGTCCCGCTTCTTTCATTAATCCGATAGCAAATGTTTTGCTATATACATTTACCTTTTAAGAGGAGGAAT	0.41
CGACATGTCCCGCTTCTTTCATTAATCCGTTACTAACTGTTTTGCTATATACATTTACCTTTTAAGAGGAGGAAT	0.155
CGACATGTCCCGCTTCTTTCATTAATCCGTTAGCAACAGTTTTGCTATATAAATTTACCTTTTAAGAGGAGGAAT	0.69
CGACATGTCCCGCTTCTTTCATTAATCCGTTAGTAAATGTTTTGCTATATACATTTACCTTTTAAGAGGAGGAAT	0.205
CGACATGTCCCGCTTCTTTCATTAATCCGTTAGCAACTGTTTTGCGATATACATTTACCTTTTAAGAGGAGGAAT	0.406
CGACATGTCCCGCTTCTTTCATTACTCCGTTAGCAACTGTTTTCCTATATACATTTACCTTTTAAGAGGAGGAAT	0.679
CGACATGTCCCGCTTCTTTCATTACTTCGTTAGCAACTGTTTTGCTATATACATTTACCTTTTAAGAGGAGGAAT	1.57
CGACATGTCCCGCTTCTTTCATTAATCCGTTAGCAACTGTTTTGCTATATACATTTAACATTTAAGAGGAGGAAT	0.609
CGACATGTCCCGCTTCTTTCATTAATTCGTTAGAAACTGTTTTGCTATATACATTTACCTTTTAAGAGGAGGAAT	0.285
CGACATGTCCCGCTTCTTTCATTAATTCGTTAGCACCTGTTTTGCTATATACATTTACCTTTTAAGAGGAGGAAT	0.658
CGACATGTCCCGCTTCTTTCATTAATCCGTAAGCAACTGTTTGGCTATATACATTTACCTTTTAAGAGGAGGAAT	0.371
CGACATGTCCCGCTTCTTTCATTAATCCGTTAGCCACTGTATTGCTATATACATTTACCTTTTAAGAGGAGGAAT	0.376
CGACATGTCCCGCTTCTTTCATTACTCCGTTAGCAACTGTTTTGCTATATACATTTACGTTTTAAGAGGAGGAAT	0.893
CGACATGTCCCGCTTCTTTCATTATTCCGTGAGCAACTGTTTTGCTATATACATTTACCTTTTAAGAGGAGGAAT	0.62
CGACATGTCCCGCTTCTTTCATTATTCCGTTAACAACTGTTTTACTATATACATTTACCTTTTAAGAGGAGGAAT	0.257
CGACATGTCCCGCTTCTTTCATTAATCCGTTAGCAACTGTTAAGCTATATACATTTACCTTTTAAGAGGAGGAAT	0.279

Reference: the supplement of paper PMC11780869
